Test results published in patent US20200325220A1 (INSTITUTE FOR RESEARCH IN BIOMEDICINE, published 2020).

Molecular target: T1, tetanus toxoid (UniProt P04958 2-1315)
T1 construct: also called TT
Test: SPR, antibody captured on protein A, H1 then TT

T1 sequence (P04958 2-457 limits assumed, chain 1 of 2): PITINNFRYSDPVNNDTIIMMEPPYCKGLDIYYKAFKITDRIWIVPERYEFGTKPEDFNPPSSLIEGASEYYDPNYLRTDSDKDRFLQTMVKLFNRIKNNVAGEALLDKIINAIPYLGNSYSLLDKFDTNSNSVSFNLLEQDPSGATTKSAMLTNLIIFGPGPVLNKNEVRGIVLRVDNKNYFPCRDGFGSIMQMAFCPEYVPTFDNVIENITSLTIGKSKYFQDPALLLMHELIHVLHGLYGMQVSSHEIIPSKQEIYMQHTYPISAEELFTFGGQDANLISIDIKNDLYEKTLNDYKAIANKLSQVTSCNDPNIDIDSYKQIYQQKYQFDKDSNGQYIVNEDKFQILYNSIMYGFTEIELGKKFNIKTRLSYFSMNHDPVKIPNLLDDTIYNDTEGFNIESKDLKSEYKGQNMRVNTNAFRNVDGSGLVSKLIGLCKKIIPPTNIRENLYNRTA
T1 sequence (P04958 458-1315 limits assumed, chain 2 of 2): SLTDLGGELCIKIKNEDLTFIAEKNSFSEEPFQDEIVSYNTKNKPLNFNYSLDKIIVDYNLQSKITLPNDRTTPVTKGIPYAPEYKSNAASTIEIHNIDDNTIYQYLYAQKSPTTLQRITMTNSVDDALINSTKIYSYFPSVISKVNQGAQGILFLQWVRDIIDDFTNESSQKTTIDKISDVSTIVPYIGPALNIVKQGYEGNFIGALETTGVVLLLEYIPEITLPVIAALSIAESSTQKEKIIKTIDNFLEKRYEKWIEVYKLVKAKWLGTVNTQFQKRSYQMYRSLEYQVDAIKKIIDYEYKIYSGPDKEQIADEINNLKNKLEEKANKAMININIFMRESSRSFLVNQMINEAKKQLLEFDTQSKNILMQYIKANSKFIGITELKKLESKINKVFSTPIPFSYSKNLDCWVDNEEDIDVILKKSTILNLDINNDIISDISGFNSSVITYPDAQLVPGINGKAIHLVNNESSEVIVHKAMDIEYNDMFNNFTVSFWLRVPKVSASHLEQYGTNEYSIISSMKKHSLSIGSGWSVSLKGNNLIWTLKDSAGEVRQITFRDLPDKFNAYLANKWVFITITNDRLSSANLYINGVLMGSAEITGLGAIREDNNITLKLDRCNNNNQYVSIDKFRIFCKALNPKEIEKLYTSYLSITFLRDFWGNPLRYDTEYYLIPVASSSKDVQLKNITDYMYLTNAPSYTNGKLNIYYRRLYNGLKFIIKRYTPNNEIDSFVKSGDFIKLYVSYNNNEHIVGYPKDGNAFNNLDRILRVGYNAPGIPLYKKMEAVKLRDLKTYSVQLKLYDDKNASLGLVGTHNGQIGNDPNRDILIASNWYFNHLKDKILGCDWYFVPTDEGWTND

B1: FI174 (antibody, V domains shown)
VH: QVQLVQSGAEVRKPGSSVKVSCKTSGGIIRKYALSWVRQAPGQGLEWMGGIIAIFGTTNYAQKFQGRVTINADESTSTVYLELSSLTSEDTAIYYCAGSATYYESRFDYWGQGTLVTVSS
VL: EIVLTQSPGTLSLSPGARATLSCRASQSVSSSSLAWYQQKPGQAPRLLIYDASSRATGIPDRFSGSGSGTDFTLTISRLEPEDFAVYYCHQYGDSRKTFGQGTKVEIKR
notes: also called F1174; FI74
binding result: no binding (tested: tetanus toxoid 50 nM)
